# Values of other authors in patent US7696205B2, “Cyclic derivatives as modulators of chemokine receptor activity” (Bristol-Myers Squibb Company, priority 2003, dated 2010).
# B1: interferon b-1b: effective therapy in human multiple sclerosis (protein, UniProt P01574 22-187, looked up, variant C17S)
# Interferon beta: MSYNLLGFLQRSSNFQSQKLLWQLNGRLEYCLKDRMNFDIPEEIKQLQQFQKEDAALTIYEMLQNIFAIFRQDSSSTGWNETIVENLLANVYHQINHLKTVLEEKLEKEDFTRGKLMSSLHLKRYYGRILHYLKAKEYSHCAWTIVRVEILRNFYFINRLTGYLRN
# System: MCP-1 expression in peripheral blood mononuclear cells
# Settings: effective therapy in human multiple sclerosis
molecule,measurement,value
B1,effect on MCP-1 expression in peripheral blood mononuclear cells,reduces MCP-1 expression
